The target in assay [1] is T1, ETBR (endothelin-bombesin receptor) expressed in Xenopus oocytes (Homo sapiens, UniProt O15354).
T1 construct: expressed in transfected cells; host or cells: Xenopus oocytes microinjected with in vitro transcribed RNA
T1 sequence (O15354 27-613): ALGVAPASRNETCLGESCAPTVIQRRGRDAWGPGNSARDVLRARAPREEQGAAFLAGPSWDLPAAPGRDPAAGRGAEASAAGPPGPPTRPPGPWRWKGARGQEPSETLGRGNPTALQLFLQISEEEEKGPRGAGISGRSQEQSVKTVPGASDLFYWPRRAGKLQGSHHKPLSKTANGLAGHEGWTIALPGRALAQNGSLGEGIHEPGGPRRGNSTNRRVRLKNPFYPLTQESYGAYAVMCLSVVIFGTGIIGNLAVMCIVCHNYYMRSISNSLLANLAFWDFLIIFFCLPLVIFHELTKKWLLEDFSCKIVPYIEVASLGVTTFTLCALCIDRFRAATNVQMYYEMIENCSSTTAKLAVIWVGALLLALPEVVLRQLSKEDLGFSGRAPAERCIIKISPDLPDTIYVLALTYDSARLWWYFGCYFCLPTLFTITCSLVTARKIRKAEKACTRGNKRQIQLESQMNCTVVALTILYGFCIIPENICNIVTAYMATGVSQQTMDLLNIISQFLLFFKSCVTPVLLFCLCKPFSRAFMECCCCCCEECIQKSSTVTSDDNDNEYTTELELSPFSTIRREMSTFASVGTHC
The assay can be described thus: Xenopus oocyte assay to identify ligand (voltage-clamp, calcium activated chloride channel activity). The assay is classed as cell-based. As to conditions: for Cl- current response upon addition of ligand: 10 nM ligand, oocytes injected with RNA from ATCC #75823, clamped at -60 mV; for mean peak ± S.E. peak current response (chloride current): oocytes injected with pHHPEC49 derived RNA transcripts, n=75. Here is the method:
Arrow indicates ET1 addition. […] The mean peak ± S.E. peak current response to ET1 is 150±50 (n=75), ET2 156±55 (n=75) and Bombesin 148±47 (n=75).
(§1) RNA was synthesized in vitro from linearized DNA, ATCC #75823, using an RNA transcription kit. This RNA was microinjected into Xenopus oocytes (10 ng of RNA/occytes). The oocytes were manually defolliculated prior to microinjection to remove any endogenous receptors that might be present in the follicular membranes. The injected oocytes were maintained in modified Barth's medium at 18° C. for 48 hours to allow for receptor protein expression. Electrophysiology was performed using the voltage-clamp technique. Oocytes were clamped at −60 mV and the calcium activated chloride channel activity was recorded in Barth's medium at room temperature. Data were analyzed using Axotape software.
(§2) The ET1 and ET3 mediated response was blocked by the ET receptor peptide antagonist BQ123. […] Since it responds to both ET and Bombesin it represents a novel endothelin-bombesin receptor.

The next assay has as its system uninjected oocytes. Nature of the assay: Uninjected Xenopus oocytes (control for endogenous response). The class given is cell-based. As to conditions: uninjected oocytes (data not shown). Here is the method: as §1, §2

Square brackets hold non-standard residues; d marks the D form. Peptide text beside a SMILES is read from it.

The source of these data is US6518404B1, “Human endothelin-bombesin receptor antibodies” (priority 1994, dated 2003).

Turning to endothelin-1 [ET1], in assay [1], the “Cl- current response upon addition of ligand” value is listed as “fairly strong Cl^− currents” and the “mean peak ± S.E. peak current response (chloride current)” value stood at 150±50 nanoamps. For the same compound, the “change in membrane potential upon addition of ligand” value in the assay on uninjected oocytes is on record as “did not elicit any change in membrane potential”.

Regarding endothelin-3 [ET3], the “Cl- current response upon addition of ligand” value in assay [1] is reported as “fairly strong Cl^− currents”. Also, in the assay on uninjected oocytes, the “change in membrane potential upon addition of ligand” value is reported as “did not elicit any change in membrane potential”.

Turning to “endothelin-2 (CSCSSWLDKECVYFCHLDIIW) [ET2, member of the endothelin peptide family]”, the “mean peak ± S.E. peak current response (chloride current)” value in assay [1] is recorded as 156±55 nanoamps.

For AII: related peptide ligand (DRVYIHPF), in assay [1], the “Cl- current response upon addition of ligand” value is recorded as “did not illicit any response”.

For Neuropeptide Y, the “Cl- current response upon addition of ligand” value in assay [1] is “did not illicit any response”.

`CC(C)C[C@@H]1NC(=O)[C@@H](C(C)C)NC(=O)[C@@H]2CCCN2C(=O)[C@@H](CC(=O)O)NC(=O)[C@@H](Cc2c[nH]c3ccccc23)NC1=O` [BQ123] (cyclo(L[dW][dD]P[dV])): in assay [1] (oocytes injected with RNA from ATCC #75823), the “effect on ET1 and ET3 mediated response” value was “blocked”.
